From US20190203210A1

Tests used:
FLAG-HA-Atoh1 [1] = target: FLAG-HA-Atoh1 (UniProt Q92858); assay: anti-HA IP of FLAG-HA-Atoh1 293T lysate, LC-MS/MS, ComPASS
FLAG-HA-Atoh1 [2] = target: FLAG-HA-Atoh1 (UniProt Q92858); assay: MS of 450 kDa Coomassie band from FLAG-HA-Atoh1 IP
FLAG-HA-Atoh1 [3] = target: FLAG-HA-Atoh1 (UniProt Q92858)

Substance | D^N Score (FLAG-HA-Atoh1 [1]) | Z score (FLAG-HA-Atoh1 [1]) | Total peptide (FLAG-HA-Atoh1 [2]) | Unique peptide (FLAG-HA-Atoh1 [2]) | further results
AAMP (from UniProt Q13685 1-434) | 1 | 5.03 |  |  | 
AKAP9 (from UniProt Q99996 1-3907) |  |  | 26 | 26 | 
BCKDHA (from UniProt P12694 46-445) | 2 | 5.54 |  |  | 
CPOX (from UniProt P36551 111-454) | 2 | 5.54 |  |  | 
EIF2C2 (from UniProt Q9UKV8 1-859) | 3.16 | 5.72 |  |  | 
FHL3 (from UniProt Q13643 2-280) | 1 | 5.16 |  |  | 
FLNC (from UniProt Q14315 1-2725) | 1.15 | 5.21 |  |  | 
GFAP (from UniProt P14136 1-432) | 2.45 | 5.71 |  |  | 
GOLGB1 (from UniProt Q14789 1-3259) |  |  | 12 | 10 | 
HECT, UBA and WWE domain containing 1 (Huwe1) protein |  |  |  |  | poly-ubiquitylation of Atoh1 after Huwe1 knockdown (shRNA) (FLAG-HA-Atoh1 [3]): decreased poly-ubiquitylation was observed after Huwe1 knockdown
HECT, UBA and WWE domain containing 1 (Huwe1) protein, Q7Z6Z7 1-4374 | 1.5 | 5.56 | 279 | 122 | 
MACF1 (from UniProt Q9UPN3 1-7388) |  |  | 51 | 50 | 
MAP1B (from UniProt P46821 2-2468) |  |  | 133 | 78 | 
Myc-Huwe1 C4341A |  |  |  |  | wild-type and K48 poly-ubiquitylated Atoh1 (FLAG-Atoh1): The resulting decrease in both wild-type and K48 poly-ubiquitylated Atoh1
NEK9 (from UniProt Q8TD19 2-979) (enzyme) | 2.83 | 5.54 |  |  | 
NT5DC2 (from UniProt Q9H857 1-520) | 2 | 5.71 |  |  | 
PDE4D (from UniProt Q08499 1-809) | 1.41 | 5.71 |  |  | 
PRDX4 (from UniProt Q13162 38-271) | 1.23 | 4.6 |  |  | 
SEC23A (from UniProt Q15436 2-765) | 1.23 | 5.24 |  |  | 
SEC23B (from UniProt Q15437 2-767) | 1 | 5.03 |  |  | 
SERPINH1 (from UniProt P50454 19-418) | 1 | 3.92 |  |  | 
SLC3A2 (from UniProt P08195 2-529) | 1.41 | 5.71 |  |  | 
SON (from UniProt P18583 2-2426) |  |  | 22 | 20 | 
SRI (from UniProt P30626 1-198) | 1.41 | 5.71 |  |  | 
TCF12 (from UniProt Q99081 1-682) | 2.45 | 5.71 |  |  | 
TUBA1C (from UniProt Q9BQE3 1-449) | 1.39 | 2.88 |  |  | 
TUBB2B (from UniProt Q9BVA1 1-445) | 2.58 | 4.36 |  |  | 
UBR5 (from UniProt O95071 2-2799) (enzyme) |  |  | 31 | 26 | 
USP11 (from UniProt P51784 1-963) (enzyme) | 1.41 | 5.42 |  |  | 
UTRN (from UniProt P46939 1-3433) |  |  | 30 | 30 | 

More lines, main results first:

D^N Score (FLAG-HA-Atoh1 [1]) | Z score (FLAG-HA-Atoh1 [1]) | Total peptide (FLAG-HA-Atoh1 [2]) | Unique peptide (FLAG-HA-Atoh1 [2]) | Substance | further results
1.41 | 5.71 |  |  | ACOX1 (from UniProt Q15067 1-660) | 
1 | 5.03 |  |  | AHSA1 (from UniProt O95433 1-338) | 
1.41 | 5.71 |  |  | ATP2A1 (from UniProt O14983 1-1001) | 
1 | 5.03 |  |  | CCDC124 (from UniProt Q96CT7 1-223) | 
 |  | 23 | 21 | CEP350 (from UniProt Q5VT06 1-3117) | 
2.45 | 5.6 |  |  | CTPS2 (from UniProt Q9NRF8 1-586) | 
 |  | 13 | 12 | DMXL1 (from UniProt Q9Y485 1-3027) | 
 |  | 87 | 75 | DYNC1H1 (from UniProt Q14204 2-4646) | 
1 | 5.16 |  |  | EIF2C1 (from UniProt Q9UL18 1-857) | 
1 | 5.16 |  |  | EIF2C3 (from UniProt Q9H9G7 1-860) | 
1.41 | 5.71 |  |  | ENAH (from UniProt Q8N8S7 1-591) | 
 |  | 36 | 34 | HERC2 (from UniProt O95714 1-4834) (enzyme) | 
 |  | 79 | 46 | KIF11 (from UniProt P52732 1-1056) | 
 |  | 15 | 14 | MAP1A (from UniProt P78559 1-2803) | 
2 | 5.71 |  |  | MAPK3 (from UniProt P27361 2-379) (enzyme) | 
 |  | 41 | 37 | MDN1 (from UniProt Q9NU22 1-5596) | 
 |  | 29 | 27 | MGA (from UniProt Q8IWI9 1-3065) | 

D^N Score (FLAG-HA-Atoh1 [1]) | Z score (FLAG-HA-Atoh1 [1]) | Total peptide (FLAG-HA-Atoh1 [2]) | Unique peptide (FLAG-HA-Atoh1 [2]) | Substance | further results
 |  | 51 | 47 | MYCBP2 (from UniProt O75592 1-4678) (enzyme) | 
1.41 | 5.71 |  |  | PDXK (from UniProt O00764 1-312) | 
 |  | 17 | 16 | PLEC (from UniProt Q15149 1-4684) | 
 |  | 161 | 112 | PRKDC (from UniProt P78527 1-4128) (enzyme) | 
1.23 | 4.6 |  |  | PRPS1 (from UniProt P60891 2-318) | 
 |  | 26 | 21 | PRRC2C (from UniProt Q9Y520 1-2896) | 
 |  | 32 | 30 | RNF213 (from UniProt Q63HN8 1-5207) (enzyme) | 
 |  | 12 | 12 | SACS (from UniProt Q9NZJ4 1-4579) | 
 |  | 53 | 38 | SRRM2 (from UniProt Q9UQ35 1-2752) | 
3.16 | 5.57 |  |  | TCF3 (from UniProt P15923 1-654) | 
2 | 5.71 |  |  | TNRC6C (from UniProt Q9HCJ0 1-1936) | 
 |  | 12 | 12 | TRRAP (from UniProt Q9Y4A5 2-3859) | 
3 | 3.77 |  |  | TUBA4A (from UniProt P68366 1-448) | 
2 | 5.54 |  |  | USP47 (from UniProt Q96K76 1-1375) (enzyme) | 
1.41 | 5.71 |  |  | YARS2 (from UniProt Q9Y2Z4 17-477) | 
1.58 | 5.48 |  |  | ZYX (from UniProt Q15942 2-572) | 
